We go through two substances from patent US20110305629A1.

In experiment [1] the target is αvβ6 (UniProt P06756). Briefly: binding ELISA; murine secondary. (ELISA stands for enzyme-linked immunosorbent assay.)
The target in experiment [2] is human αvβ6 integrin on cells (human) (UniProt P06756). Briefly: cell adhesion assay: SCC-14 cells to LAP, inhibition by m3G9.
Experiment [3] deals with African green monkey αvβ6 integrin on 12MBr6 cells (African green monkey). Briefly: cell adhesion assay: labelled 12MBr6 cells on LAP-coated plate, inhibition by m3G9.
Experiment [4] concerns the target rhesus monkey αvβ6 integrin on 4MBr5 cells (rhesus monkey) (UniProt H9ETF2). Briefly: cell adhesion assay: 4MBr5 cells to LAP; the text gives the cell lines the other way round than the table.
For experiment [5] the target is unchanged. Briefly: flow cytometry titration on 4MBr5 cells; given as ED50; the text gives the cell lines the other way round than the table.
Experiment [6] has the same target. Briefly: flow cytometry titration on 4MBr5 cells; given as ED50.
For experiment [7], the target named is human αvβ6 integrin on cells (human) (UniProt P06756). Briefly: cell adhesion assay: Detroit562 cells to LAP, inhibition by m3G9.
Experiment [8] has the same target. Briefly: cell adhesion assay: SW480β6 cells to LAP, inhibition by m3G9.
For experiment [9] the target is unchanged. Briefly: cell-based or functional assay.
The target of experiment [10] is rhesus monkey αvβ6 integrin on 4MBr5 cells (rhesus monkey) (UniProt H9ETF2). Briefly: cell-based or functional assay.
Experiment [11] addresses African green monkey αvβ6 integrin on 12MBr6 cells (African green monkey). Briefly: flow cytometry titration on 12MBr6 cells; given as ED50; the text gives the cell lines the other way round than the table.
The target in experiment [12] is rhesus monkey αvβ6 integrin on 4MBr5 cells (rhesus monkey) (UniProt H9ETF2). Briefly: cell adhesion assay: labelled 4MBr5 cells on LAP-coated plate, inhibition by m3G9.
The target of experiment [13] is African green monkey αvβ6 integrin on 12MBr6 cells (African green monkey). Briefly: flow cytometry titration on 12MBr6 cells; given as ED50. (Flow cytometry measures light scatter and fluorescence of single cells or particles in a stream.)
Experiment [14] shares this target. Briefly: cell adhesion assay: 12MBr6 cells to LAP; the text gives the cell lines the other way round than the table.

human αvβ6 integrin on cells (human), sequence (P06756 31-1048, chain 1 of 2): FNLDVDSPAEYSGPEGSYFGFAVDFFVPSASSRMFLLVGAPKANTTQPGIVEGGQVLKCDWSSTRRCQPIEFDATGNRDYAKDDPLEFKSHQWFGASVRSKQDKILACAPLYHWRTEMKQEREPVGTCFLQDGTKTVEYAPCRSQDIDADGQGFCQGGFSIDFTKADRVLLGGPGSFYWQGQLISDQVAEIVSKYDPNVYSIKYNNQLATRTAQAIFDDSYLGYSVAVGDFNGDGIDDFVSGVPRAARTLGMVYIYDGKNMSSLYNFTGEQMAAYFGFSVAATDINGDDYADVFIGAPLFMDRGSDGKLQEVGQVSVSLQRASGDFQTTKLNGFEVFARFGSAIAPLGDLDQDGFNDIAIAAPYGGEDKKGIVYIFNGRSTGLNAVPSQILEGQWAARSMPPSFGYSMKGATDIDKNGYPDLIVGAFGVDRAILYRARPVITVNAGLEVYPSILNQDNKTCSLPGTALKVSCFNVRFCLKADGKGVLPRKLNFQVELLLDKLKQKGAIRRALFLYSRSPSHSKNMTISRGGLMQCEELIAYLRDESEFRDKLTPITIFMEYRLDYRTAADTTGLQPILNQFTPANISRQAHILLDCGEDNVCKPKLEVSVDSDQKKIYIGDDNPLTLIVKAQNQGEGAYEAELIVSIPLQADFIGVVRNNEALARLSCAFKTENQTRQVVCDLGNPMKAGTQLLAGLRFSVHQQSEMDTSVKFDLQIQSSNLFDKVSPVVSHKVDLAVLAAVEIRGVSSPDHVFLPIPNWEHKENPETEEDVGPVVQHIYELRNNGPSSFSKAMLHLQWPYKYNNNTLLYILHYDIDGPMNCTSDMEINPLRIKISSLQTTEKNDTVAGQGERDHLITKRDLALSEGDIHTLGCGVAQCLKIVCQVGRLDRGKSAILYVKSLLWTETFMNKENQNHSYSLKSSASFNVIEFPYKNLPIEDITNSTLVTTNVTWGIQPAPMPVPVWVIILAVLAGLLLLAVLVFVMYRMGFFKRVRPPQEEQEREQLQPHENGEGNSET
human αvβ6 integrin on cells (human), sequence (P18564 22-788, chain 2 of 2, further chain): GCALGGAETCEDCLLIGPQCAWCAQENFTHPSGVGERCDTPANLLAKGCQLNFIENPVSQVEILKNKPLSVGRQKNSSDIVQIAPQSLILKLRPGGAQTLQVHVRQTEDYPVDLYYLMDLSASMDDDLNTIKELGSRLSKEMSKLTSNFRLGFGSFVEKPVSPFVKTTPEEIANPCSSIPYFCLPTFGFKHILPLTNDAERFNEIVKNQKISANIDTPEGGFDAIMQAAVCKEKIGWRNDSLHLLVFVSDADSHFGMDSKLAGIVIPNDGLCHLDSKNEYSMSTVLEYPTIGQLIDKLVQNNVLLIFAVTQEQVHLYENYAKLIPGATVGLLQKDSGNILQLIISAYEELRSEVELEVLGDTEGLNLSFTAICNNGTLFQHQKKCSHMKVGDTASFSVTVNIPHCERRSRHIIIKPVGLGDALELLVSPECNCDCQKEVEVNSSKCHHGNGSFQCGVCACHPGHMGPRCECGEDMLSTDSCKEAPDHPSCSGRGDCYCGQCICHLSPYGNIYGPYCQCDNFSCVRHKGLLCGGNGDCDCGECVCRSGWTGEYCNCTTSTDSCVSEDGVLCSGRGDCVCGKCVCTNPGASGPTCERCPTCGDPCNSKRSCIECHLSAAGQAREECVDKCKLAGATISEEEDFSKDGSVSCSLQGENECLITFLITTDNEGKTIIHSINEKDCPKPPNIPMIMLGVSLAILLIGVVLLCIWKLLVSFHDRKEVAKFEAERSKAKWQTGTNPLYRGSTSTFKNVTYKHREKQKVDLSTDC
αvβ6, sequence (P06756 31-992, chain 1 of 2): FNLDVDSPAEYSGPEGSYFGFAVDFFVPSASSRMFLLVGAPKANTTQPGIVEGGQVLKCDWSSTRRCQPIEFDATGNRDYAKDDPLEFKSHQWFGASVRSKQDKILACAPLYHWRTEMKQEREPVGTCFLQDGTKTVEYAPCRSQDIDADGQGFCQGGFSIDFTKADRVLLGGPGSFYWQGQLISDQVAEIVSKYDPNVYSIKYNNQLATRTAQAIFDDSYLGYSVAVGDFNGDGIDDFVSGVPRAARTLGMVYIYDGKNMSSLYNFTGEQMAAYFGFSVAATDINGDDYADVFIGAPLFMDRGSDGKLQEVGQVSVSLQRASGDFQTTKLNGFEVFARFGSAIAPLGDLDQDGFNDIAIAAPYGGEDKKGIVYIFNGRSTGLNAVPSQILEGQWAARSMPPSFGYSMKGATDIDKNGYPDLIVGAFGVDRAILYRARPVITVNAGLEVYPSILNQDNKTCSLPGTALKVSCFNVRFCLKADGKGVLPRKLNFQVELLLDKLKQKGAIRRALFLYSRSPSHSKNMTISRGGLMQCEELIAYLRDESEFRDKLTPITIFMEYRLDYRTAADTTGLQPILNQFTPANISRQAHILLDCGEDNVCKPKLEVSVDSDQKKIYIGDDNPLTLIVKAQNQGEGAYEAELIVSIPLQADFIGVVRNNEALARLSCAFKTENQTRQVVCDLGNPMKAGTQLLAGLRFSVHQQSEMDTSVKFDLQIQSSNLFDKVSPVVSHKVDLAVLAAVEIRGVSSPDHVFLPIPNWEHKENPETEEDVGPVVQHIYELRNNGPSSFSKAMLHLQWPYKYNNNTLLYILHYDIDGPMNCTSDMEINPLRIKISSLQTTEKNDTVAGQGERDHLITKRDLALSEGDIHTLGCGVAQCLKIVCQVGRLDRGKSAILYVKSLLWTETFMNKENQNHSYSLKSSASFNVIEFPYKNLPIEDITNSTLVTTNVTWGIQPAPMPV
αvβ6, sequence (P18564 22-709, chain 2 of 2, further chain): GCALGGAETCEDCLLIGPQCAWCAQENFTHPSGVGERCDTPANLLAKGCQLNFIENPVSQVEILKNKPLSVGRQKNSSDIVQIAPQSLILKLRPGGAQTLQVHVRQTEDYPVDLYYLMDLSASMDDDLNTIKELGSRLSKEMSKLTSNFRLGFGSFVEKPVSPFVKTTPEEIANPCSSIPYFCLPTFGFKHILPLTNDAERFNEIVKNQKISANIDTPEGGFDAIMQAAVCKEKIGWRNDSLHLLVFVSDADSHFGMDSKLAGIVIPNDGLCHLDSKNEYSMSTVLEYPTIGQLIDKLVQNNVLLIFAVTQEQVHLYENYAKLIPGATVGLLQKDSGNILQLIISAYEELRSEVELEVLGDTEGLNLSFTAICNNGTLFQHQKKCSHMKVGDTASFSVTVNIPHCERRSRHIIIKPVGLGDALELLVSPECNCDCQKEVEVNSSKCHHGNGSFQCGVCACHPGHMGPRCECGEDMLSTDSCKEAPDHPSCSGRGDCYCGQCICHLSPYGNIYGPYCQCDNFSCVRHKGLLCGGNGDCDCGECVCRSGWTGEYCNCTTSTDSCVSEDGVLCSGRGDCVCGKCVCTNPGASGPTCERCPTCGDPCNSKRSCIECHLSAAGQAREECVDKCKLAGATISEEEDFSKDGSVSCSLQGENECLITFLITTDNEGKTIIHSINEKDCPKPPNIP

As usually defined, the EC50 is the midpoint of the concentration-response curve. m3G9 (murine secondary) showed a 50% effective concentration (EC50) in experiment [1] of 0.021 µg/mL.
The term IC50 denotes the concentration needed to halve the response being measured. Take murine monoclonal antibody 6.3G9: the half-inhibitory concentration (IC50) in experiment [2] is 0.16 µg/mL; in [3] it was 0.29 µg/mL; in [4], 0.29 µg/mL; in experiment [7], 0.04 µg/mL; in [8] it was 0.03 µg/mL; in [12] it was 0.22 µg/mL. The same substance had an IC50 in experiment [14] of 0.22 µg/mL. Moreover, the EC50 in experiment [5] worked out at 0.38 µg/mL; in experiment [6], 0.3 µg/mL; in [11], 0.3 µg/mL; in experiment [13] it was 0.38 µg/mL. Moreover, in experiment [9], the Coculture IC50, µg/mL (TGFβ activation by SW480β6 cells, TMLC luciferase reporter cells) came out at 0.37 µg/mL. The same substance returned an IC50, coculture assay (SW480β6) in experiment [9] of 0.24 µg/mL. The same substance yielded a Coculture IC50, µg/mL (TGFβ activation by 4MBr5 cells, TMLC luciferase reporter cells) in experiment [10] of 0.31 µg/mL. In experiment [10], this substance came in with an IC50, coculture assay (4MBr5) of 0.4 µg/mL.
